Experimental data from CN113583116A (YANG SHENG TANG CO LTD; UNIV XIAMEN, dated 2021).

Assays:
[1] = target: T1, SARS-CoV-1的RBD重组蛋白 SARS-CoV1-RBD (SARS-CoV-1, UniProt P59594 306-527)
[2] = target: T1, SARS-CoV-1的RBD重组蛋白 SARS-CoV1-RBD; assay: indirect ELISA, RBD coated at 2 μg/mL, antibody at 10, 1, 0.1 and 0.01 μg/mL

B1: 小鼠单克隆抗体2B4 (antibody, V domains shown)
VH: QVQLQQPGAELVRPGASVKLSCKASGYTFTSYWMNWVKQRPEQGLEWIGRIDPYDSETHYNQKFKDKAILTVDKSSTTAYMQLSSLTSEDSAVYYCARWGTVEWFFDYWGQGTTLTVSQ
VL: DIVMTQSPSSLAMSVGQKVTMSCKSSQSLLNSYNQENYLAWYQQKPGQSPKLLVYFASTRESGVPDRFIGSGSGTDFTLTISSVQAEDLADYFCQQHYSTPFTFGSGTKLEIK
B1 gave a Kd [1] of 34.1 nM.

B2: 小鼠单克隆抗体36H6 (antibody, V domains shown)
VH: EVQLQQSGPELVNPGASVKISCKTSGYTFTEYTMHWVKQSHGKSLEWIGGINPNNGDTIYNQKFKGKATLTVDKSSSTAYMELRSLTSEDSAVFYCAREGDYYVSSYGYWGQGTTLTVSS
VL: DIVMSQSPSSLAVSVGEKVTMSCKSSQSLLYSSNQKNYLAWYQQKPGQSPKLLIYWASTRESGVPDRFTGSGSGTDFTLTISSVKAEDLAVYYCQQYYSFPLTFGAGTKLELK
B2: no binding (tested: 10μg/mL) [2].
